# Biological target: T1, Fur (ferric uptake regulator) (Shewanella piezotolerans WP3) (UniProt B8CQZ2)
# T1 sequence: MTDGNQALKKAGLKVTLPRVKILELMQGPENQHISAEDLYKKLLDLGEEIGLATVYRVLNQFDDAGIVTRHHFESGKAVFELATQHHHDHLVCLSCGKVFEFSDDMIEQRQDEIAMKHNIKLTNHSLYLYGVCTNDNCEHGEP
# Assay: EMSA
# Conditions: 40 mM KCl, 12.5 mM Tris pH 7.5, 125 uM MnCl2, 1.25 mM MgCl2, 5% glycerol, 0.5 mM DTT, 0.01% BSA, 50 ug/ml salmon sperm DNA, 20 C, 30 min; ~0.2 pmol probe and …
row,Sequence,binding
1,ATAGAGGGGAGCCATAACGGCGAAGGTTACATGGAACTCACCGGCTACTAAGCCGTAACAACCACTCAAACATAAGCTTTATGAAGTATGTAATTGCATTCAAAAAGCAATAGATAAGAATAATTATCATTTACTAAGCTTATGAATATCTTGGATATTTAATGTAGCGCAAGCTAACATTTCGAGTGGACAAAATTCAAACAAGCTTCTAGTCTTTATTGGTAAATTTGAGAACTAGATCACCCCCTAAAAGTTGATCTTGGTCGAT (double strand) [napD (swp4456) promoter],binds
2,CAGGCTGTAATTGACCTTTTTACACGCAGCAAATAACTGCTTTTTTTGCTGTTCATCAAGTAAAGAGATGAGGGTTCCCGGCACGTTACATTCCTTGGCTTGATAATAATCAAGAGGTGAAGTTTGCTATTCAAGATATAGTGCAAATGATAATCATTATTAATAAAAGTGCAACATATAAAGGGAGCGATTATGGAAGCGATAAGTCCTGCTTTTCGATGGATAAGCGTGATAGCGA (double strand) [Crp-like regulator (swp3806) promoter],binds
3,TGACCTTAATCACATAAAGCATCTAAAACACCTGCTAAAAATTACGCTGTTAGTTAGCCTTAGAGGTGGAAATAAAATTCCACACACTAAATAAGGGTAAATGAGATTTGTTCTCAAACTAATTCCCTTTTTAGTGATGATTAAAAAACTATTGCAGGGACAAAAATGATGAAATTTTTCAACTTAAGCGCGACTTCAAAAGCGCTACTTACGGCAGGGGTGCTTTCGTTAGCAGTTTCTGGCTGTAGTGGC (double strand) [omcA (swp3277) promoter],binds
4,TTATTACGTGCAATAAGAAGCTTTAACTTTGCTGAGATAAACAATGAAAGAGGAGTTTCTATCAAACTTTAAATGAATGATACAGCTTGATTTGTTTGTGATCTTTTTGCTTTTGATGGTTACAGGTTTGTTAGTGTTGTGCGCGAGTTCACATTGACAATGTAAATACACGTAAAGAAGTATGAATAAAAACAATTCTCATTTATATTGCAGCCAATTATTAAATGTAGCTTTCATTTTTGGGGTTGGTTATGTCTTTTCAGGCGTCTT (double strand) [TonB receptor (swp5150) promoter],binds
